Laboratory results: patent publication US9777044B2, “GLUT-1 as a receptor for HTLV envelopes and its uses” (CENTRE NATIONAL DE LA RECHERCHE SCIENTIFIQUE (CNRS), priority 2003, dated 2017)

Legend:
293T cells = test: Glucose consumption of transfected cells; type: cell-based, human; conditions: normalized to cellular protein content
Method: Envelope expression and metabolic measurements. 293T cells were transfected with the various envelope expression vectors using a modified version of the calcium phosphate method. After an overnight transfection, cells were washed in phosphate-buffered saline (PBS) and fresh medium was added. Media were harvested at the indicated time points, filtered through a 0.45-μm pore-size filter, and lactate and glucose were measured with enzymatic diagnostic kits (Sigma). Values were normalized to cellular protein content using the Bradford assay (Sigma) after solubilization of cells in lysis buffer (50 mM Tris-HCl pH 8.0, 150 mM NaCl, 0.1% sodium dodecyl sulfate, 1.0% Nonidet P-40, 0.5% deoxycholate) and clarification by centrifugation.

GLUT-1 = molecular target: T1, GLUT-1 (Homo sapiens, UniProt P11166); test: RBD binding to cells overexpressing GLUT-1
T1 construct: factor Xa cleavage site (C); His (C); expressed in transfected cells
T1 sequence (P11166 1-492): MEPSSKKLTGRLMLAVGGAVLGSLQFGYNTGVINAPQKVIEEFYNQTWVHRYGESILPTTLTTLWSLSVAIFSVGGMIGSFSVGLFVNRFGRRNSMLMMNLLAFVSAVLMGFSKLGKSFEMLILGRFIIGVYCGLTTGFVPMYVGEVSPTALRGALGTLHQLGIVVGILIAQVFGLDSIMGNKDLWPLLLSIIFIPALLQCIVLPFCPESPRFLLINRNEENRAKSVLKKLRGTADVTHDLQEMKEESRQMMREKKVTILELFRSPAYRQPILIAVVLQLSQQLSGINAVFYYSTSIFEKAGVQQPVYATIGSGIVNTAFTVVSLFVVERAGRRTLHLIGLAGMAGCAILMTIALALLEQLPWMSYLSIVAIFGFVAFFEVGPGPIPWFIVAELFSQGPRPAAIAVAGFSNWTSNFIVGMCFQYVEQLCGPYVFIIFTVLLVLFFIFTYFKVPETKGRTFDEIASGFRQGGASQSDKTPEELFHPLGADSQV
Text: (§1) In order to directly test the ability of HTLV envelopes to bind GLUT-1, we derived a tagged GLUT-1 expression vector and overexpressed this protein in HeLa cells. […] GLUT-3 is the closest isoform to GLUT-1, and transports glucose with kinetics similar to that of GLUT-1. Thus, we derived a tagged GLUT-3 expression vector. […] To determine if GLUT-1 transfected cells were directly responsible for the observed increased in H1RBD binding, we derived fluorescent tagged GLUT-1 and GLUT-3 to uniquevocally identity GLUT-overexpressing cells in the course of our FACS analysis. […] Consequently, we tested if HTLV glycoproteins directly interact with GLUT-1 proteins. To this end, we evaluated the ability of H1RBD to immunoprecipitate GLUT-1. […] Therefore, the GLUT-1 glucose transporter is an essential component of the HTLV envelope receptor.
Expression vectors. Full length envelope expression vectors for HTLV-1 (pCEL/2[Denesvre, 1995]) and Friend ecotropic MLV (pCEL/F [Denesvre, 1995]), have been previously described. For the HTLV-2 envelope, a fragment from pHTE2 [Rosenberg, 1998] encompassing the tax, rex and env genes and the 3′ LTR was inserted in the pCSI [Battini, 1999] vector (pCSIX.H2). Full length envelope expression vectors for amphotropic MLV (pCSI.A), or devoid of its R peptide (pCSI.AΔR), and H183FEnv that contains the N-terminal 183 amino acids of the HTLV-1 receptor-binding domain in the F-MLV envelope background, as well as truncated envelope expression vectors, derived from pCSI and encoding either of the first 215 residues of HTLV-1 SU (H1RBD), the first 178 residues of HTLV2-SU (H2RBD) or the first 397 residues of the amphotropic murine leukemia virus (MLV) SU (Amp), fused to a C-terminal rabbit IgG Fc tag (rFc) or to EGFP (H2RBD-GFP). All point mutations introduced in HTLV-1 and -2 RBD constructs were generated using the quickchange site-directed mutagenesis method and mutations were verified by sequencing. Human Glut-1 and Glut-3 cDNA were amplified by PCR from the pLib HeLa cDNA library (Clontech), and inserted into pCHIX, a modified version of the pCSI vector that contains a cassette comprising a factor Xa cleavage site, two copies of the hemagglutinin (HA) tag, and a histidine tag. The resulting construct (pCHIX.hGLUT1) encodes a GLUT-1 protein with a HA-His tag at the C-terminal end. GLUT-1 and GLUT-3 were also inserted in a modified pCSI vector containing a DsRed2 C-terminal tag. Similarly, human CD147 was amplified from 293T total RNA by RT-PCR and inserted into the pCHIX backbone in frame with the HA-His tag (pCHIX.hCD147).
(§2) Binding assays. […] Binding was analyzed on a FACSCalibur (Becton Dickinson) and data analysis was performed using CellQuest (Becton Dickinson) and WinMDI (Scripps) softwares.

GLUT-3 = molecular target: T2, GLUT-3 (Homo sapiens, UniProt P11169); test: RBD binding to cells overexpressing GLUT-3
T2 construct: factor Xa cleavage site + 2x HA + His (pCHIX cassette) (C); expressed in transfected cells; host or cells: 293T cells
T2 sequence (P11169 1-496): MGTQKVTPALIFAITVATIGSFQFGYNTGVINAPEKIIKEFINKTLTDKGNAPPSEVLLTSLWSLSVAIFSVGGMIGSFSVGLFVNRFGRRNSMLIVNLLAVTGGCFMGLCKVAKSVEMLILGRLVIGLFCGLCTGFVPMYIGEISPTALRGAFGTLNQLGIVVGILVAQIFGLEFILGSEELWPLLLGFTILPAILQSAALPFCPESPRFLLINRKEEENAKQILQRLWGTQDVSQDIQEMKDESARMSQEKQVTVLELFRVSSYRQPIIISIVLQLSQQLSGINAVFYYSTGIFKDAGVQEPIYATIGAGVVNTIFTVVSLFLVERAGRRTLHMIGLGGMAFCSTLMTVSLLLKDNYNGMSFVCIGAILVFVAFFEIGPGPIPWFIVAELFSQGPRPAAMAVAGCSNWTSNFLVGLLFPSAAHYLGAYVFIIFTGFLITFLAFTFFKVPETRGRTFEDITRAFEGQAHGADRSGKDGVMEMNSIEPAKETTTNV
Text: as §1
Expression vectors. Full length envelope expression vectors for HTLV-1 (pCEL/2[Denesvre, 1995]) and Friend ecotropic MLV (pCEL/F [Denesvre, 1995]), have been previously described. For the HTLV-2 envelope, a fragment from pHTE2 [Rosenberg, 1998] encompassing the tax, rex and env genes and the 3′ LTR was inserted in the pCSI [Battini, 1999] vector (pCSIX.H2). […]
as §2

B1: H1RBD: first 215 residues of HTLV-1 SU fused to a C-terminal rabbit IgG Fc tag (rFc) (protein)
chain: DYSPSCCTLTIGVSSYHSKPCNPAQPVCSWTLDLLALSADQALQPPCPNLVSYSSYHATYSLYLFPHWIKKPNRNGGGYYSASYSDPCSLKCPYLGCQSWTCPYTGAVSSPYWKFQQDVNFTQEVSRLNINLHFSKCGFPFSLLVDAPGYDPIWFLNTEPSQLPPTAPPLLPHSNLDHILEPSIPWKSKLLTLVQVDVPRDCGCKPCICTVPEVSSVFIFPPKPKDVLTITLTPKVTCVVVDISKDDPEVQFSWFVDDVEVHTAQTQPREEQFNSTFRSVSELPIMHQDWLNGKEFKCRVNSAAFPAPIEKTISKTKGRPKAPQVYTIPPPKEQMAKDKVSLTCMITDFFPEDITVEWQWNGQPAENYKNTQPIMDTDGSYFVYSKLNVQKSNWEAGNTFTCSVLHEGLHNHHTEKSLSHSPGK
Glucose consumption compared to control cells (293T cells): significantly decreased | H1RBD binding to cells overexpressing GLUT-1-DsRed2 (GLUT-1; fluorescent tagged GLUT-1, FACS analysis): significant increase | binding upon GLUT-1 overexpression (GLUT-1; tagged GLUT-1 expression vector, HeLa cells / 293T cells (FIG. 4a legend)): dramatically increased | binding upon GLUT-3 overexpression (GLUT-3; 293T cells, tagged GLUT-3): did not induce any increase | H1RBD binding to cells overexpressing GLUT-3-DsRed2 (GLUT-3; fluorescent tagged GLUT-3, FACS analysis): no effect
